{"source": "patent US20120172315A1", "about": "(CENTRE NATIONAL DE LA RECHERCHE SCIENTIFIQUE, published 2012)", "target": "eIF4E in B lymphocytes from patients suffering from CLL (human (patients' cells);  for …, UniProt P06730 2-217, limits assumed)", "sequence (P06730 2-217 limits assumed)": "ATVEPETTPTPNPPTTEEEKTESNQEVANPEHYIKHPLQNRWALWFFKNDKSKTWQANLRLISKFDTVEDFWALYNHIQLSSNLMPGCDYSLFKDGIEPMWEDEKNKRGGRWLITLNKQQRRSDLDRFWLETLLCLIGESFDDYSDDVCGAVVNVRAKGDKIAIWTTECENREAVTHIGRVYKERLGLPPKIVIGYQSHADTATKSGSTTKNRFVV", "assay": "cell-based or functional assay"}
{"binder": "RRKYGRDFLLRFRYIRS", "note": "[A1 WT IRS peptide]", "values": [{"measurement": "IC50, defined as the concentration of peptide capable of causing the death of 50% of the cells after 24 H (CLL cells)", "value": "~28", "unit": "µM"}, {"measurement": "IC50, defined as the concentration of peptide capable of causing the death of 50% of the cells after 24 H (CLL cells, second patient)", "value": 24, "unit": "µM"}]}
